# Measured values: the supplement of paper PMC10724198
# ± gives the standard deviation of the averaged measurements.
# System: Saccharomyces cerevisiae
# Assay: protein stability index of tFT-peptide fusion (C-terminal peptide) (PSI (0-1 scale)); higher = more stable (slower turnover)
# Details: genetic background: wild type; temperature: 30 C
# Method: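 Multiplexed protein stability (MPS) profiling in S. cerevisiae. Random 12-aa peptides (tFT-X12 library) are fused to the C-terminus of a sfGFP-mCherry tandem fluorescent timer, after mCherry and a GGGS linker. Cells are FACS-sorted into 8 mCherry/sfGFP bins and deep-sequenced. The protein stability index (PSI) is the read-weighted bin average, scaled from 0 (unstable) to 1 (stable). Only peptides with >10 reads are reported; cells were grown at 30 °C in SC-His with glucose.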
# 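Further: PSI is a weighted mean of sequencing reads over stability bins, variants kept only with over 10 reads, mCherry proximal and sfGFP distal, peptide attached via GGGS linker.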
row,Sequence,protein stability index
1,ETRIRGVMPRAY,0.659 ± 0.014
2,ETWRRIDRLFGS,0.619 ± 0.058
3,EVAVELIGAPGL,0.699 ± 0.1
4,EVDRRRSVITLP,0.668 ± 0.033
5,EVEGGLSFSARG,0.706 ± 0.074
6,EVEINGRLVGKM,0.646 ± 0.097
7,EVKDDSKVVVYV,0.666 ± 0.022
8,EVKERGRGCREG,0.659 ± 0.03
9,EVRRGVGGAWEG,0.648 ± 0.011
10,EVSGGNRYWCGV,0.719 ± 0.022
11,EVSHLGLVCGHL,0.653 ± 0.081
12,EVSSGGQRVGRS,0.763 ± 0.018
13,EVWGSVETSCAS,0.739 ± 0.17
14,EWGRSGVRCRLG,0.571 ± 0.052
15,EWRWPTELNRKG,0.75 ± 0.051
16,EYAVLLFPHHPG,0.623 ± 0.041
17,EYGSWIRTASRV,0.726 ± 0.016
18,EYKKKKTKANDT,0.6944 ± 0.0015
19,EYRPPVPPPFPP,0.579 ± 0.033
20,FAAGIMWQSGLK,0.657 ± 0.019
21,FAEWVRFWPGLV,0.6682 ± 0.0064
22,FAHRVVCFCVFS,0.505 ± 0.038
23,FALAVPLDPWSS,0.737 ± 0.065
24,FAQRRGPAALNI,0.70492 ± 0.00052
25,FARELGNLNVEK,0.761 ± 0.056

row,Sequence,protein stability index
1,FASPPPLPLPPH,0.694 ± 0.02
2,FCFHPLTGKLSG,0.6536 ± 0.0029
3,FCFRFISCPLHF,0.549 ± 0.047
4,FCGLVIRFSEKV,0.653 ± 0.017
5,FCLFTYIPSSCL,0.664 ± 0.035
6,FCLGSFMFEGGR,0.723 ± 0.032
7,FCPPLSFPPPLS,0.718 ± 0.13
8,FCRCNYLYRIPK,0.6615 ± 0.0026
9,FCRVCLAFLSGL,0.781 ± 0.22
10,FCRYSRAWKDFV,0.737 ± 0.087
11,FCSLLLFRFVVL,0.517 ± 0.015
12,FCSPLPSSPPLP,0.658 ± 0.028
13,FCSRVGFVFLRL,0.489 ± 0.024
14,FCSSVSFPPAPL,0.642 ± 0.035
15,FDFFLPFLCSSL,0.827 ± 0.2
16,FDMYACCQRGAV,0.6639 ± 0.0027
17,FDRWEDCKGTRD,0.71 ± 0.013
18,FFCLVPLALPRF,0.649 ± 0.019
19,FFFGPPPCRSFF,0.731 ± 0.019
20,FFFPSPPPPSLV,0.749 ± 0.05
21,FFLRSPLFPCSH,0.72173 ± 0.00052
22,FFMWDLLFLSLD,0.669 ± 0.011
23,FFPATVGPFSFP,0.731 ± 0.015
24,FFPQPTPVSISR,0.8264 ± 0.0039
25,FFPSSPFLPPPR,0.657 ± 0.1

row,Sequence,protein stability index
1,FFSFWVGATTIE,0.70044 ± 0.00014
2,FFVAFGSWFGFL,0.677 ± 0.099
3,FFVRGCLCLSDR,0.693 ± 0.024
4,FFVSHLLRFAIK,0.555 ± 0.0089
5,FGAIREVFYIRL,0.662 ± 0.018
6,FGCGVADLERCL,0.686 ± 0.013
7,FGDLAVFFAFLL,0.564 ± 0.0069
8,FGESGSGSKRCG,0.701 ± 0.12
9,FGFLSVSPLLSV,0.642 ± 0.016
10,FGGEGGEEMAGG,0.789 ± 0.034
11,FGGGLGGGVVLV,0.69158 ± 0.00021
12,FGRFCYELLCGT,0.541 ± 0.056
13,FGSDQFVCRLWS,0.729 ± 0.048
14,FGVALGLRACAG,0.668 ± 0.059
15,FGVVGAVGWRLR,0.638 ± 0.03
16,FGYSGCVAKTGL,0.658 ± 0.049
17,FHSSDLCGPVTS,0.67 ± 0.025
18,FIKSRRLCCVNL,0.663 ± 0.032
19,FILLLPSPPPAP,0.618 ± 0.034
20,FITRATRESRIG,0.694 ± 0.0073
21,FKKMTNVIKGNN,0.689 ± 0.016
22,FKLSRTDSWMFT,0.712 ± 0.01
23,FKPKAGCSNFAK,0.696 ± 0.025
24,FKSCSLHCSRCS,0.682 ± 0.12
25,FKWSGGGRGVGP,0.679 ± 0.08

row,Sequence,protein stability index
1,FLFFLLLYVFFC,0.498 ± 0.048
2,FLGAVVGVGLVG,0.658 ± 0.053
3,FLGECSLLSGFL,0.694 ± 0.033
4,FLGGSRVGRGDG,0.6943 ± 0.0053
5,FLGLFHTVKKWQ,0.684 ± 0.06
6,FLGLSYYRLPVG,0.606 ± 0.046
7,FLIFSLSFCVLS,0.6713 ± 0.0031
8,FLLSLLAFRFFL,0.478 ± 0.04
9,FLLTVFPPLFFP,0.704 ± 0.011
10,FLLVHIFSLFCL,0.547 ± 0.013
11,FLLYGWTRPSCQ,0.735 ± 0.062
12,FLPRRLCVRWRG,0.684 ± 0.065
13,FLPWPSYPTPGP,0.784 ± 0.018
14,FLQSRGWVCNHL,0.655 ± 0.038
15,FLSALLALPASP,0.698 ± 0.0064
16,FLSARVSSSLLL,0.639 ± 0.035
17,FLSGVGSHLTGP,0.653 ± 0.019
18,FLSLAAPQSGGA,0.693 ± 0.027
19,FLSRCSVRPVTY,0.668 ± 0.021
20,FLSSFVSNHVFW,0.7914 ± 0.0032
21,FLTSPFIITRMP,0.593 ± 0.071
22,FLVPTYISPFSF,0.65 ± 0.027
23,FLWLRLLEAFWF,0.603 ± 0.032
24,FMLCCFPCWCVL,0.6127 ± 0.0041
25,FMRGQCWLRGCE,0.672 ± 0.016

row,Sequence,protein stability index
1,FNGANEDCDLGV,0.665 ± 0.12
2,FNNTSFALRSQA,0.741 ± 0.029
3,FPAMVRVDTCGV,0.673 ± 0.059
4,FPAPSPPFRLPP,0.748 ± 0.025
5,FPAYRPARLTPA,0.606 ± 0.033
6,FPFVVVISSSGE,0.693 ± 0.23
7,FPGFHPIFPPPL,0.664 ± 0.093
8,FPHSPPFIPHPP,0.647 ± 0.021
9,FPLDNIALQSFP,0.774 ± 0.099
10,FPLPPFPLTPPP,0.64 ± 0.054
11,FPLQSFCYFVPI,0.597 ± 0.0015
12,FPPRPLPFCSPA,0.643 ± 0.0046
13,FPPVPLVTDTFT,0.675 ± 0.034
14,FPPVVSSLPPPS,0.686 ± 0.14
15,FPRGPLPPAPSP,0.6556 ± 0.006
16,FPRPHPTPLPPG,0.689 ± 0.013
17,FPRSCETPARAL,0.6607 ± 0.0043
18,FPRSMPSPPSSE,0.623 ± 0.035
19,FPRSSGRTVNCV,0.648 ± 0.0084
20,FPSASPPFLPTP,0.705 ± 0.037
21,FPSPPHALPTFP,0.669 ± 0.071
22,FPSSRGLGGTMG,0.658 ± 0.017
23,FPSTPRPPLPPP,0.668 ± 0.014
24,FQPTYCVHKQNK,0.722 ± 0.024
25,FRCFDAQRLGGV,0.6858 ± 0.002

row,Sequence,protein stability index
1,FRDPTVLCCLHI,0.515 ± 0.055
2,FRMNEVSWDVVS,0.675 ± 0.032
3,FRRGGVERGVEG,0.723 ± 0.026
4,FRSFGYSGSMLA,0.6902 ± 0.0013
5,FRSFLSKLNGLF,0.636 ± 0.03
6,FRSGRLSPPAPS,0.692 ± 0.0028
7,FRSRGPVGMGAS,0.686 ± 0.1
8,FRYICYSRPVMR,0.684 ± 0.14
9,FSCEVSFAGLIV,0.6 ± 0.012
10,FSFFPLLARYFF,0.499 ± 0.0052
11,FSGLELRVGCGA,0.732 ± 0.086
12,FSGRRGCFSSYI,0.653 ± 0.037
13,FSLLLSFPCSYL,0.601 ± 0.021
14,FSLLSFLLPLFP,0.787 ± 0.12
15,FSNSSASPPSLS,0.664 ± 0.068
16,FSPDSDFTRCAP,0.701 ± 0.002
17,FSPPPLPAASPS,0.664 ± 0.071
18,FSPYLYNIRTSL,0.612 ± 0.024
19,FSRAFLDRVIVS,0.713 ± 0.04
20,FSRRQLLCLPHP,0.677 ± 0.0083
21,FSRSDREIFPRN,0.585 ± 0.07
22,FSRSGIRLLGVA,0.59 ± 0.021
23,FSSARSPLLSRL,0.705 ± 0.041
24,FSSFCFFLPPLN,0.666 ± 0.034
25,FSSFVVVGCWPR,0.625 ± 0.027

row,Sequence,protein stability index
1,FSSPLSSPSPLY,0.6834 ± 0.0059
2,FSSSPGRSFRTV,0.726 ± 0.0091
3,FSVFFSPQRGCM,0.759 ± 0.1
4,FTERVVEKFVLY,0.633 ± 0.01
5,FTPDFTPKGSLS,0.791 ± 0.088
6,FTPSSPPLPLLP,0.655 ± 0.11
7,FVASEFEVRLWR,0.769 ± 0.01
8,FVCLRWAVGLGG,0.6204 ± 0.0013
9,FVFGECRGWALV,0.76 ± 0.046
10,FVFSMDAFRSGL,0.665 ± 0.045
11,FVGDPRRLSLPI,0.761 ± 0.14
12,FVGPAWLGVRSC,0.659 ± 0.012
13,FVGVGLVRVVGW,0.618 ± 0.018
14,FVGWGLGVGTHD,0.679 ± 0.0054
15,FVKQSHYCLFHL,0.634 ± 0.011
16,FVLISSPLLRSF,0.623 ± 0.017
17,FVLPLAPAGIAS,0.5817 ± 0.0038
18,FVSRLWKIPTES,0.583 ± 0.034
19,FVVVLSPLVILQ,0.5344 ± 0.0049
20,FVWSGVGCWSEA,0.701 ± 0.0076
21,FWAWEGCTRALM,0.681 ± 0.07
22,FWGCFVWFCVCG,0.509 ± 0.023
23,FWGPVWNVSWGV,0.695 ± 0.019
24,FWSRGANGGVLV,0.6775 ± 0.0037
25,FYPHFCAHTRPH,0.7265 ± 0.0054

row,Sequence,protein stability index
1,FYSPSAPSPFFL,0.797 ± 0.052
2,GADSWFGVVDVC,0.75 ± 0.1
3,GAEHGVRTTAVT,0.658 ± 0.014
4,GAEKEPEPRRLA,0.699 ± 0.06
5,GAGGVWGGGQAG,0.696 ± 0.041
6,GAGLGGGRGRRW,0.68617 ± 0.00065
7,GAGRLGGDRVVG,0.698 ± 0.037
8,GAGVEIGKSRYR,0.716 ± 0.074
9,GAKCLFVSGGGI,0.6804 ± 0.0047
10,GALYGARCNFEL,0.72017 ± 0.00015
11,GAMLAGRQGWGL,0.679 ± 0.018
12,GAPPLAPTPPPP,0.745 ± 0.024
13,GAPPRPKTGRTF,0.7118 ± 0.00075
14,GAPRESSEGRAQ,0.725 ± 0.095
15,GAPVGRRPGRDR,0.703 ± 0.035
16,GAREHGSNDYGP,0.635 ± 0.036
17,GARSARVWARAK,0.664 ± 0.022
18,GARVRIRVNDKK,0.677 ± 0.021
19,GASPLPSPADHL,0.717 ± 0.14
20,GATGGACGVWAG,0.668 ± 0.048
21,GAVRGDRLTHTG,0.734 ± 0.028
